Results as given in paper PMC7037651, “Chemically Crosslinked Bispecific Antibodies for Cancer Therapy: Breaking from the Structural Restrictions of the Genetic Fusion Approach” (International Journal of Molecular Sciences, 2020).
Residue numbers refer to the chain shown, from its start.

Columns and labels:
soluble EGFR (sEGFR) [1] = target: soluble EGFR (sEGFR) (UniProt P00533); test: SPR; Biacore 2000; sEGFR immobilised on a CM5 chip at the higher amount (2605 to 2833 RU); PBS with 0.005% Tween20; scFv monomer or dimer injected for 120 s at 10 to 250 nM; global fit, 1:1 Langmuir model
soluble EGFR (sEGFR) [2] = target: soluble EGFR (sEGFR) (UniProt P00533); test: SPR; Biacore 2000; sEGFR immobilised on a CM5 chip at the lower amount (1073 to 1122 RU); PBS with 0.005% Tween20; scFv monomer or dimer injected for 120 s at 10 to 250 nM; global fit, 1:1 Langmuir model
soluble EGFR (sEGFR) [3] = target: soluble EGFR (sEGFR) (UniProt P00533); test: SPR; Biacore 2000; sEGFR immobilised on a CM5 chip (amount not given for Tables 2 and 5); running buffer PBS with 0.005% Tween20; scFv monomer or dimer injected for 120 s at 10 to 250 nM; global fit, 1:1 Langmuir model
soluble EGFR (sEGFR) [4] = target: T1, soluble EGFR (sEGFR) (Homo sapiens (assumed; EGFR on human …, UniProt P00533); test: SPR; Biacore 2000; sEGFR immobilised on a CM5 chip at the higher amount (2605 to 2833 RU); PBS with 0.005% Tween20; scFv monomer or dimer injected for 120 s at 10 to 250 nM; global fit, 1:1 Langmuir model; settings: both partners purified
T1 construct: soluble epidermal growth factor receptor (sEGFR); also called epidermal growth factor receptor; immobilized EGFR; source: prepared as described previously [28]

soluble EGFR (sEGFR) [5] = target: T1, soluble EGFR (sEGFR); test: SPR; Biacore 2000; sEGFR immobilised on a CM5 chip at the lower amount (1073 to 1122 RU); PBS with 0.005% Tween20; scFv monomer or dimer injected for 120 s at 10 to 250 nM; global fit, 1:1 Langmuir model; settings: both partners purified
soluble EGFR (sEGFR) [6] = target: T1, soluble EGFR (sEGFR); test: SPR; Biacore 2000; sEGFR immobilised on a CM5 chip (amount not given for Tables 2 and 5); running buffer PBS with 0.005% Tween20; scFv monomer or dimer injected for 120 s at 10 to 250 nM; global fit, 1:1 Langmuir model; settings: both partners purified
EGFR on A431 cells = target: T2, EGFR on A431 cells (Homo sapiens (A431 cells), UniProt P00533); test: flow cytometry on cells; competitive binding: 10^6 A431 cells mixed with non-labeled scFv or dimer (50 pmol), washed, then various amounts of FITC-labeled wild-type h528 scFv added; on ice; settings: one partner purified
T2 construct: epidermal growth factor receptor on A431, a human epidermoid carcinoma line; also called target-expressing cells; A431 (EGFR-positive tumor cell line); source: endogenous, on A431 cells

side–side bivalent h528 scFv dimer with C6 linker
Kd (soluble EGFR (sEGFR) [1]): 34 nM

side–tail bivalent h528 scFv dimer with C1 linker
Kd (soluble EGFR (sEGFR) [2]): 149 nM
koff (soluble EGFR (sEGFR) [2]): 0.005 s⁻¹
kon (soluble EGFR (sEGFR) [2]): 34000 M⁻¹ s⁻¹
Kd (soluble EGFR (sEGFR) [1]): 109 nM
koff (soluble EGFR (sEGFR) [1]): 0.0047 s⁻¹
kon (soluble EGFR (sEGFR) [1]): 43000 M⁻¹ s⁻¹

side–side bivalent h528 scFv dimer with C1 linker
Kd (soluble EGFR (sEGFR) [2]): 78 nM

side–tail bivalent h528 scFv dimer with C6 linker
Kd (soluble EGFR (sEGFR) [2]): 159 nM

tail–tail bivalent h528 scFv dimer with C6 linker
Kd (soluble EGFR (sEGFR) [2]): 18 nM
koff (soluble EGFR (sEGFR) [2]): 0.0012 s⁻¹
kon (soluble EGFR (sEGFR) [2]): 62000 M⁻¹ s⁻¹
Kd (soluble EGFR (sEGFR) [1]): 23 nM
koff (soluble EGFR (sEGFR) [1]): 0.0015 s⁻¹
kon (soluble EGFR (sEGFR) [1]): 63000 M⁻¹ s⁻¹

B1: wild-type humanized 528 (h528) scFv (scFv, V domains shown)
VH: QVQLVQSGAEVKKPGASVKVSCKASGYTFTSYWMHWVRQAPGQGLEWMGNIYPGSGGTNYAEKFKNRVTMTRDTSISTAYMELSRLRSDDTAVYYCARSGGPYFFDYWGQGTLVTVSS
VL: DIVMTQSPLSLPVTPGEPASISCRSSQNIVHNNGITYLEWYLQKPGQSPQLLIYKVSDRFSGVPDRFSGSGSGTDFTLKISRVEAEDVGVYYCFQGSHIPPTFGQGTKVEIK
Kd (soluble EGFR (sEGFR) [3]): 26 nM
koff (soluble EGFR (sEGFR) [3]): 0.0052 s⁻¹
kon (soluble EGFR (sEGFR) [3]): 196000 M⁻¹ s⁻¹

B2: LK103-0K h528 scFv (scFv, V domains shown)
VH: B1 VH with K12A, K13E, K19Q, K23A, K63E, K65Q
VL: B1 VL with K44R, K55Q, K79T, K112E
notes: linker (GGGGS)3; lysine kept at L103; also called LK103-0K scFv
Kd (soluble EGFR (sEGFR) [4]): 207 nM
koff (soluble EGFR (sEGFR) [4]): 0.0089 s⁻¹
kon (soluble EGFR (sEGFR) [4]): 43000 M⁻¹ s⁻¹
Kd (soluble EGFR (sEGFR) [5]): 221 nM
koff (soluble EGFR (sEGFR) [5]): 0.0086 s⁻¹
kon (soluble EGFR (sEGFR) [5]): 39000 M⁻¹ s⁻¹
Kd (soluble EGFR (sEGFR) [6]): 205 nM
koff (soluble EGFR (sEGFR) [6]): 0.0086 s⁻¹
kon (soluble EGFR (sEGFR) [6]): 42000 M⁻¹ s⁻¹

B3: FITC-labeled wild-type h528 scFv (scFv, V domains shown)
VH: B1 VH
VL: B1 VL
notes: linker (GGGGS)3; m4 with a fluorescein label; also called fluorescently labeled wild-type scFv; labeled wild-type scFv
binding result (EGFR on A431 cells): binds

B4: HK19-0K h528 scFv (scFv, V domains shown)
VH: B1 VH with K12A, K13E, K23A, K63E, K65Q
VL: B1 VL with K44R, K55Q, K79T, K108E, K112E
notes: lysine kept at H19; linker (GGGGS)3; 0K scFv with the 19th residue of VH returned to lysine; also called HK19-0K scFv; KH19-0K scFv
Kd (soluble EGFR (sEGFR) [4]): 108 nM
koff (soluble EGFR (sEGFR) [4]): 0.0075 s⁻¹
kon (soluble EGFR (sEGFR) [4]): 69000 M⁻¹ s⁻¹
Kd (soluble EGFR (sEGFR) [5]): 144 nM
koff (soluble EGFR (sEGFR) [5]): 0.0075 s⁻¹
kon (soluble EGFR (sEGFR) [5]): 52000 M⁻¹ s⁻¹
Kd (soluble EGFR (sEGFR) [6]): 135 nM
koff (soluble EGFR (sEGFR) [6]): 0.0079 s⁻¹
kon (soluble EGFR (sEGFR) [6]): 60000 M⁻¹ s⁻¹

B5: 0KCDR h528 scFv (scFv, V domains shown)
VH: B1 VH with K63E, K65Q
VL: B1 VL with K55Q
notes: linker (GGGGS)3; it looks like Kabat numbering; also called 0KCDR scFv
Kd (soluble EGFR (sEGFR) [6]): 38 nM
koff (soluble EGFR (sEGFR) [6]): 0.0054 s⁻¹
kon (soluble EGFR (sEGFR) [6]): 141000 M⁻¹ s⁻¹

B6: 0K h528 scFv (scFv, V domains shown)
VH: B1 VH with K12A, K13E, K19Q, K23A, K63E, K65Q
VL: B1 VL with K44R, K55Q, K79T, K108E, K112E
notes: linker (GGGGS)3; it looks like Kabat numbering; also called h528 scFv without lysine in the CDR and FR
Kd (soluble EGFR (sEGFR) [6]): 137 nM
koff (soluble EGFR (sEGFR) [6]): 0.0082 s⁻¹
kon (soluble EGFR (sEGFR) [6]): 60000 M⁻¹ s⁻¹
